Experimental findings from patent US20120294822A1 (ALDERBIO, published 2012) are described below.

Numbering of substitutions follows the chain as printed.

The labels stand for the following.
T1: Homo sapiens CGRP-alpha (Calcitonin Gene Related Peptide alpha) (Homo sapiens, -NH2 at the C-terminal end as printed ('wherein the N-terminal phenylalanine is amidated'); 125I radiolabeled in the receptor binding assay of Example 6)
T1 construct: 37-residue synthetic peptide from American Peptides / Bachem; Coated directly on the plate in the ELISA of recombinant antibodies; also called CGRPα; human CGRPα
T1 peptide: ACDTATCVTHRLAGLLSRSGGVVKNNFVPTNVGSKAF

B1: Antibody Ab2 (antibody, human IgG1, kappa, N297A)
heavy: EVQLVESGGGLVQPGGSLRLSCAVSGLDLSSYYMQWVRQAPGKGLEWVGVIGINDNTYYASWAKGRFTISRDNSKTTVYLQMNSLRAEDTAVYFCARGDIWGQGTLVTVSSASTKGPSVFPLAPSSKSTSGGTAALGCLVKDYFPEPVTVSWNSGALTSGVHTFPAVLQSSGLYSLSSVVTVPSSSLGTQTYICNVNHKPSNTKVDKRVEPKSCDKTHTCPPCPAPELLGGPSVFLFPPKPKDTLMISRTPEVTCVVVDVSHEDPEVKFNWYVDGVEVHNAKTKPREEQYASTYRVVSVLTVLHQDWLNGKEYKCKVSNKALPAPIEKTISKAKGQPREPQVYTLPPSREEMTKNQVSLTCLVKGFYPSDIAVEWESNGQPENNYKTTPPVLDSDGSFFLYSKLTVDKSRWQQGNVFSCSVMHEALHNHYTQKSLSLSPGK
light: QVLTQSPSSLSASVGDRVTINCQASQSVYDNNYLAWYQQKPGKVPKQLIYSTSTLASGVPSRFSGSGSGTDFTLTISSLQPEDVATYYCLGSYDCSSGDCFVFGGGTKVEIKRTVAAPSVFIFPPSDEQLKSGTASVVCLLNNFYPREAKVQWKVDNALQSGNSQESVTEQDSKDSTYSLSSTLTLSKADYEKHKVYACEVTHQGLSSPVTKSFNRGEC
notes: Humanized full-length anti-CGRP antibody
B2: Antibody Ab12 (antibody, human IgG1, kappa, N297A, V domains shown)
VH: EVQLVESGGGLVQPGGSLRLSCAVSGIDVTNYYMQWVRQAPGKGLEWVGVIGVNGKRYYASWAKGRFTISRDNSKTTVYLQMNSLRAEDTAVYFCARGDIWGQGTLVTVSS
VL: QVLTQSPSSLSASVGDRVTINCRASQSVYYNNYLAWYQQKPGKVPKQLIYSTSTLASGVPSRFSGSGSGTDFTLTISSLQPEDVATYYCLGSYDCSNGDCFVFGGGTKVEIKR
notes: as for B1
B3: Antibody Ab5 (antibody, human IgG1, kappa, N297A)
heavy: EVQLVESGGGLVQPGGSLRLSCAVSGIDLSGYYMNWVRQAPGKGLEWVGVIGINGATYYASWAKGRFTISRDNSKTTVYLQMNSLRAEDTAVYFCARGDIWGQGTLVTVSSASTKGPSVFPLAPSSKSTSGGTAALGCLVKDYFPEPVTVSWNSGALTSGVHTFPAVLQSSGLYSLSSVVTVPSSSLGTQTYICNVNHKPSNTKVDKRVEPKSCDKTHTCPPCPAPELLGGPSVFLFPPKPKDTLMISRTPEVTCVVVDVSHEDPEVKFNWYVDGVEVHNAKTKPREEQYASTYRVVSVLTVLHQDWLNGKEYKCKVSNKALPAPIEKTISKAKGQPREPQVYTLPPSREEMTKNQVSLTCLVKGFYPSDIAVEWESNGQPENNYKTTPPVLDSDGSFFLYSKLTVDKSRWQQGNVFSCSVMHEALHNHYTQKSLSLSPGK
light: B1 light with D30H, N32T, S51D, T52A, S96T, S97N
B4: Antibody Ab6 (antibody, human IgG1, kappa, N297A)
heavy: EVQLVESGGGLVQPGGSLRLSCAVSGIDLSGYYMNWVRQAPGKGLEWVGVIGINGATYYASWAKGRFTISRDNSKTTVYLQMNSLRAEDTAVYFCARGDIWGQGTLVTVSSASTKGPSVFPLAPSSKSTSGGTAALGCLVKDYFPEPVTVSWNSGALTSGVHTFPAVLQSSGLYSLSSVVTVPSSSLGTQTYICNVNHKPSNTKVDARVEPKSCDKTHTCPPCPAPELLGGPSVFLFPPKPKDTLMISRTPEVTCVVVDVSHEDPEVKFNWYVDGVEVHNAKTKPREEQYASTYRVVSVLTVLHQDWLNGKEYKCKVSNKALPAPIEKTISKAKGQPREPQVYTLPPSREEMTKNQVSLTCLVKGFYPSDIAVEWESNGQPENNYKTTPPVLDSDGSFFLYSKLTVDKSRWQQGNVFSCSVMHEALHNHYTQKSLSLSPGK
light: B1 light with D30H, N32T, S51D, T52A, S96T, S97N
notes: as for B1
B5: Antibody Ab8 (antibody, human IgG1, kappa, N297A, V domains shown)
VH: B2 VH with V29L, T30S, Y32H, I51V, V53I, K56R, R57T
VL: B2 VL with R23Q, Y30N, N31Y, N97T
notes: as for B1
B6: Antibody Ab10 (antibody, human IgG1, kappa, N297A)
heavy: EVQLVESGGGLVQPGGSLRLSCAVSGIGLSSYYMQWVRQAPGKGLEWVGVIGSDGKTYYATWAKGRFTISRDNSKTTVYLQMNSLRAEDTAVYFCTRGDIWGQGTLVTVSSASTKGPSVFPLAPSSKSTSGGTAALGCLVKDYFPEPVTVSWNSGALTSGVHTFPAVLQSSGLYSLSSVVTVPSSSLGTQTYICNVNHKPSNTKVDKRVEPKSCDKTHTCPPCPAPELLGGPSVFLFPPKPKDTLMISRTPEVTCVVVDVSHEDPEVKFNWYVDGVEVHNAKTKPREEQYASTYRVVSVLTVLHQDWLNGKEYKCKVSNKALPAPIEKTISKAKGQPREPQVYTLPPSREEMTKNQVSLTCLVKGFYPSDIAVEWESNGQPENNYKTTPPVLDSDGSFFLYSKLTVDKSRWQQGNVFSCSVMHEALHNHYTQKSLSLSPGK
light: B1 light with S27N, D30N, S97R
notes: as for B1
B7: Antibody Ab3 (antibody, human IgG1, kappa, N297A)
heavy: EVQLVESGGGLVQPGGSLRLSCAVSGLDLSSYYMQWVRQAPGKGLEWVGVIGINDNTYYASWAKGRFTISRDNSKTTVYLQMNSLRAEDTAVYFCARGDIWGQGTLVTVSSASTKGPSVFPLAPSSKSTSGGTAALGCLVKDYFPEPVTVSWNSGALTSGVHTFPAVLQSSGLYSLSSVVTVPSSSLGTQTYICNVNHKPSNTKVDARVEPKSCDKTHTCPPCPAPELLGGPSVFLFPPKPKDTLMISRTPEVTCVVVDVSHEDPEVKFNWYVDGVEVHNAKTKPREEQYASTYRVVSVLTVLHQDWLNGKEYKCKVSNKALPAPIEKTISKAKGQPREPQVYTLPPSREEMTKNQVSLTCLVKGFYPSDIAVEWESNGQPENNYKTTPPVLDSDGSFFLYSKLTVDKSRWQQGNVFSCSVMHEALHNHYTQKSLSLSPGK
light: B1 light
B8: Antibody Ab14 (antibody, human IgG1, kappa, N297A)
heavy: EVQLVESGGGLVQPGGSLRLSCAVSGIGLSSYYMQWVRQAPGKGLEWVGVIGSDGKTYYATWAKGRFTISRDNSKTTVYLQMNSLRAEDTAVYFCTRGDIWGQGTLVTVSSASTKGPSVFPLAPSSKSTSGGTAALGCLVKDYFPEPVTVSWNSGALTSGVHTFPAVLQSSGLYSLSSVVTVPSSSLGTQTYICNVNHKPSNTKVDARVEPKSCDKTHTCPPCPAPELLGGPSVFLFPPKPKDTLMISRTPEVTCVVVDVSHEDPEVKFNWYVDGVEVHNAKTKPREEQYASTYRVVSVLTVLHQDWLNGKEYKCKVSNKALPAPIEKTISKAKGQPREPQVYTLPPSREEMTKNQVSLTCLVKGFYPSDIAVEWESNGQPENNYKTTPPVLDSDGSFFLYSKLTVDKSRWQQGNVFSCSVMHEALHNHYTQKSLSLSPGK
light: B1 light with S27N, D30N, S97R
notes: as for B1
B9: Antibody Ab1 (antibody, human IgG1, kappa, N297A, V domains shown)
VH: QSLEESGGRLVTPGTPLTLTCTVSGLDLSSYYMQWVRQAPGKGLEWIGVIGINDNTYYASWAKGRFTISRASSTTVDLKMTSLTTEDTATYFCARGDIWGPGTLVTVSS
VL: QVLTQTASPVSAAVGSTVTINCQASQSVYDNNYLAWYQQKPGQPPKQLIYSTSTLASGVSSRFKGSGSGTQFTLTISDLECADAATYYCLGSYDCSSGDCFVFGGGTEVVVKR
notes: Chimeric (rabbit variable, human gamma-1/kappa constant) full-length anti-CGRP antibody
B10: Antibody Ab9 (antibody, human IgG1, kappa, N297A, V domains shown)
VH: QSLEESGGRLVTPGTPLTLTCTVSGIGLSSYYMQWVRQSPGRGLEWIGVIGSDGKTYYATWAKGRFTISKTSSTTVDLRMASLTTEDTATYFCTRGDIWGPGTLVTVSS
VL: B9 VL with A7P, S27N, D30N, K64R, L79V, E80Q, A82D, S97R
notes: Chimeric full-length anti-CGRP antibody
B11: Antibody Ab7 (antibody, human IgG1, kappa, N297A, V domains shown)
VH: QEQLKESGGRLVTPGTSLTLTCTVSGIDLSNHYMQWVRQAPGKGLEWIGVVGINGRTYYASWAKGRFTISRTSSTTVDLKMTRLTTEDTATYFCARGDIWGPGTLVTVSS
VL: B9 VL with D30N, N31Y, L79V, E80Q, A82D, S97T
notes: as for B10
B12: Antibody Ab11 (antibody, human IgG1, kappa, N297A, V domains shown)
VH: QSLEESGGRLVTPGGSLTLTCTVSGIDVTNYYMQWVRQAPGKGLEWIGVIGVNGKRYYASWAKGRFTISKTSSTTVDLKMTSLTTEDTATYFCARGDIWGPGTLVTVSS
VL: B9 VL with A12P, Q23R, D30Y, L79V, E80Q, A82D, S97N
notes: Chimeric full-length anti-CGRP antibody; also called Abll
B13: Antibody Ab4 (antibody, human IgG1, kappa, N297A, V domains shown)
VH: B9 VH with T22S, L26I, S30G, Q34N, D54G, N55A, R70K, A71T
VL: QVLTQTPSPVSAAVGSTVTINCQASQSVYHNTYLAWYQQKPGQPPKQLIYDASTLASGVPSRFSGSGSGTQFTLTISGVQCNDAAAYYCLGSYDCTNGDCFVFGGGTEVVVKR

The assay addresses T1, Homo sapiens CGRP-alpha (Calcitonin …). Nature of the assay: ELISA, CGRPα coated on plate, anti-human IgG Fc-HRP detection. On the procedure:
To characterize recombinant expressed antibodies for their ability to bind to human-CGRPα antibody-containing solutions were tested by ELISA. All incubations were done at room temperature. Briefly, Immulon IV plagtes (Thermo Scientific), were coated with a CGRPα containing solution (1 ut/mL in PBS) for 2 hours. CGRPα-coated plates were then washed three times in wash buffer (PBS, 0.05% Tween-20). The plates were then blocked using a blocking solution (PBS, 0.5% fish skin gelatin, 0.05% Tween-20) for approximately one hour. The blocking solution was then removed and the plates were then incubated with a dilution series of the antibody being tested for approximately one hour. At the end of this incubation, the plate was washed three times with wash buffer and further incubated with a secondary antibody containing solution (Peroxidase conjugated affinipure F(ab′)2 fragment goat anti-human IgG, Fc fragment specific (Jackson Immunoresearch) for approximately 45 minutes and washed three times. At that point a substrate solution (TMB peroxidase substrate, BioFx) and incubated for 3 to 5 minutes in the dark. The reaction was stopped by addition of a HCl containing solution (0.5M) and the plate was read at 450 nm in a plate-reader.
(In general: ELISA stands for enzyme-linked immunosorbent assay.)
In the case of B1, the binding result is on record as “binds”. As for B2, the binding result is on record as “binds”.

As for B3, the binding result is on record as “binds”. As for B4, the binding result is “binds”. B5: the binding result is “binds”. On to B6, for which the binding result is reported as “binds”. For B7, the binding result is given as “binds”. For the molecule B8, the binding result was “binds”. Take B9: the binding result is reported as “binds”. As for B10, the binding result is recorded as “binds”. With B11 the entry was “binds”; with B12, “binds”; with B13, “binds”.
